Ends that are not written are not given here. carboxyfluorescein = carboxyfluorescein (fluorescent group)
Biological target: amylase
Assay: fluorescence of immobilized carboxyfluorescein-labeled peptide on chip, ex 490 nm / em 520 nm, 1.0 uM amylase, 25 C, 5 min

- increase of the fluorescence intensity (fold): 10 times
Binder: K(carboxyfluorescein)YQSWRYSQAC-NH2 [Lys(Rf)-Tyr-Gln-Ser-Trp-Arg-Tyr-Ser-Gln-Ala-Cys-NH2]

Source: patent US8148141
